Data on six substances can be found in US20050123911A1, “Method of mass spectrometry” (priority 2001, published 2005).

“And” between values parts separate entries of the source, which are not always exact repeats. Equal values may be shown once. Gly∗ = not defined here; Ac∗ = not defined here

In test [1] the target is T1, Trypsin (Bos taurus, UniProt P00760).
T1 construct: purchased Sigma T1426
T1 sequence (P00760 24-246): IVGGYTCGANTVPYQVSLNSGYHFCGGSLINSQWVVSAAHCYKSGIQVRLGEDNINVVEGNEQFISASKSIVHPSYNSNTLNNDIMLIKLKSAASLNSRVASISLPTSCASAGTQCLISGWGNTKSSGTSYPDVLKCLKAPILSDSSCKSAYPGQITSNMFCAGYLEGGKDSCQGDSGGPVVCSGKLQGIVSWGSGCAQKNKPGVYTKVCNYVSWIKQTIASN
Briefly: Incubation of single DiMaS peptides with trypsin, LC-MS analysis. The format is biochemical. The following applies: for Cleaved sequence following incubation with trypsin (FIG. 13): mass spectrum; for Cleavage site on incubation with Trypsin / Cleaved fragment identified after incubation with Trypsin (Table 1): room temperature, 9 h; for Cleavage site on incubation with Trypsin: aliquot every 2 h, LC-MS; for Cleaved fragment identified after incubation with Trypsin (Table 1): HPLC/MS. The procedure:
The peptide (10 μl of 1 mM in Acetonitrile) was treated with a solution of buffer (50 mM HEPES, 150 mM NaCl and 1 μM Zn^2+, 35 μl), and finally Trypsin was added (5 μl, 2.5 μM). The reaction was allowed to take place at room temperature for 9 h and an aliquot of solution was removed for LC-MS analysis.
Peptides 4 and 10 were incubated with trypsin as described above and then analysed by HPLC/MS to give masses according to Table 1.
Compounds 7(2) and 7(13) (10 μl in Acetonitrile) were treated with a solution of buffer (50 mM HEPES, 150 mM NaCl and 1 μM Zn^2+, 35 μl), and finally Trypsin was added (5 μl, 2.5 μM). The reaction was allowed to take place at room temperature for 9 h and an aliquot of solution was removed for LC-MS analysis every 2 h.

The target of test [2] is T2, neutral endopeptidase (NEP) (Homo sapiens, UniProt P08473).
T2 construct: purchased BioMep
In words: Incubation of DiMaS peptides with NEP, LC-MS analysis. The format is biochemical. To be noted: room temperature, 9 h, HPLC/MS. The procedure:
The peptide (10 μl of 1 mM in Acetonitrile) was treated with a solution of buffer (50 mM HEPES, 150 mM NaCl and 1 μM Zn^2+, 35 μl), and finally neutral endopeptidase (NEP) was added (5 μl, 2.5 μM). The reaction was allowed to take place at room temperature for 9 h and an aliquot of solution was removed for LC-MS analysis.
Peptides 4, 6 and 10 were incubated with NEP as described above and then analysed by HPLC/MS to give masses according to Table 1.

T2 sequence (P08473 whole entry, species assumed): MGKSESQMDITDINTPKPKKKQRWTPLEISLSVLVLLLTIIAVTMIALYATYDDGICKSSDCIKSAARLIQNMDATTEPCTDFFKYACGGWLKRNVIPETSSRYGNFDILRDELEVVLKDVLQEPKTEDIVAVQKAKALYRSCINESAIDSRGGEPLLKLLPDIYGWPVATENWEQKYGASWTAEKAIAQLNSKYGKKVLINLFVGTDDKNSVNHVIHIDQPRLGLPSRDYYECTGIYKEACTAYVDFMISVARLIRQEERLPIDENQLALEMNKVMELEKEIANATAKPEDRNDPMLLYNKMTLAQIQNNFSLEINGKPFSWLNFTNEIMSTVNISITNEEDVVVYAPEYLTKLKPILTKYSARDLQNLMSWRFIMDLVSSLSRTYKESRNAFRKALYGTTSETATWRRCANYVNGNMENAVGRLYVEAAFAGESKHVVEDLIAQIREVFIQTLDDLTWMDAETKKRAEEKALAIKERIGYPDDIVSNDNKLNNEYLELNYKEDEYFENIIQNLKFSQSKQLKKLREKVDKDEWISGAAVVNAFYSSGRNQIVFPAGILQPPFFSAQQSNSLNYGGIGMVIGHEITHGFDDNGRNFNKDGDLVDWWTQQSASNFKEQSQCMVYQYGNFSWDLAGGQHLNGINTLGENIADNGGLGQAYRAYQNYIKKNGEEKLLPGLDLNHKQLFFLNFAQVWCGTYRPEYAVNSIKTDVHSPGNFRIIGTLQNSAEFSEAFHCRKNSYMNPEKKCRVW

Consider “Ac-Gly* Ala Ala Phe Lys Arg Ala Gly Ala Ala Lys(Ac*)-NH2 ({Ac-Gly∗}-AAFKRAGAAK(Ac∗)-NH2; reading uncertain; also: isotope labels: Gly* with D2 or H2, Ac* with D3 or H3, printed as Ac-Gly* Ala Ala Phe Lys Arg Ala Gly Ala Ala Lys(Ac*)-NH2) [7(17)]”, for which, in test [1], the “Cleaved sequence following incubation with trypsin (FIG. 13)” value was “Ac-Gly-Ala-Ala-Phe-Lys-Arg-OH”.

Take “Ac-Gly* Ala Gly Arg Ala Asn Ile Asp Phe Ala Lys(Ac*)-NH2 ({Ac-Gly∗}-AGRANIDFAK(Ac∗)-NH2; reading uncertain; also: isotope labels: Gly* with D2 or H2, Ac* with D3 or H3, printed as Ac-Gly* Ala Gly Arg Ala Asn Ile Asp Phe Ala Lys(Ac*)-NH2) [7(2)]”: in test [1], the “Cleaved sequence following incubation with trypsin (FIG. 13)” value is given as “H2N-Ala-Asn-Ile-Asp-Phe-Ala-Lys(ac)-NH2” and the “Cleavage site on incubation with Trypsin” value is listed as “cleavage after the arginine residue”. For “Ac-Gly* Ala Phe Leu Ala Arg Asn Ile Asp Leu Lys(Ac*)-NH2 ({Ac-Gly∗}-AFLARNIDLK(Ac∗)-NH2; reading uncertain; also: isotope labels: Gly* with D2 or H2, Ac* with D3 or H3, printed as Ac-Gly* Ala Phe Leu Ala Arg Asn Ile Asp Leu Lys(Ac*)-NH2) [7(13)]”, in test [1], the “Cleavage site on incubation with Trypsin” value is on record as “cleavage after the arginine residue”.

For the substance “AcGly-Pro-Arg-Ala-Ala-Ala-Gly-NH2 (Ac-GPRAAAG-NH2; also: partly isotope-labelled (D in acetyl and a Gly), extent not given here) [Peptide 4]”, the “Cleaved fragment identified after incubation with Trypsin (Table 1)” value in test [1] was 371, 374: AcGlyProArgOH and H2NalaAlaAlaGlyNH2. For the same substance, the “Cleaved fragment identified after incubation with NEP (Table 1)” value in test [2] is “AcGlyProArgAlaOH and 239, 241: H2NAlaAlaGlyNH2”.

In the case of “AcHis-His-Gln-Lys-Leu-Val-Phe-Phe-Ala-Gly-NH2 (Ac-HHQKLVFFAG-NH2; also: partly isotope-labelled (D in acetyl and a Gly), extent not given here) [Peptide 10]”, the “Cleaved fragment identified after incubation with Trypsin (Table 1)” value in test [1] was 591, 594 AcHisHisGlnLysOH and H2NleuValPhePheAlaGlyNH2. In addition, in test [2], the “Cleaved fragment identified after incubation with NEP (Table 1)” value is “AcHisHisGlnLysLeuOH and 315, 317: NH2PheAlaGlyNH2”. For the substance “AcSer-Glu-Val-Asn-Leu-Asp-Ala-Glu-Phe-Gly-NH2 (Ac-SEVNLDAEFG-NH2; also: partly isotope-labelled (D in acetyl and a Gly), extent not given here) [Peptide 6]”, the “Cleaved fragment identified after incubation with NEP (Table 1)” value in test [2] is listed as “H2NleuAspAlaGluPheGlyNH2”.
